# The Immune Epitope Database (IEDB)
# Assays:
# HLA-B*51:01 [1] = experiment: IEDB peptide-MHC binding, purified MHC/competitive/radioactivity; filed as Kd, often an IC50 or EC50 that approximates it; ≥ and ≤ were set here for values at or beyond the usual limits of such assays
# HLA-B*53:01 [2] = experiment: as above
# HLA-B*35:01 [3] = experiment: as above
# HLA-B*07:02 [4] = experiment: IEDB peptide-MHC binding, purified MHC/competitive/radioactivity; ≥ and ≤ were set here for values at or beyond the usual limits of such assays
# HLA-B*54:01 [5] = experiment: as above
# HLA-B*51:01 [6] = experiment: as above
# HLA-B*35:01 [7] = experiment: as above
# HLA-B*07:02 [8] = experiment: IEDB peptide-MHC binding, purified MHC/competitive/radioactivity; filed as Kd, often an IC50 or EC50 that approximates it; ≥ and ≤ were set here for values at or beyond the usual limits of such assays
# HLA-B*54:01 [9] = experiment: as above
# HLA-B*53:01 [10] = experiment: IEDB peptide-MHC binding, purified MHC/competitive/radioactivity; ≥ and ≤ were set here for values at or beyond the usual limits of such assays
# [11] = source organism: Human immunodeficiency virus 1
# [12] = source organism: Human T-cell lymphotrophic virus type 1 (Caribbean isolate)
# [13] = source organism: human papillomavirus 18
# [14] = source organism: Candida albicans
# [15] = source organism: Human immunodeficiency virus type 1 (RF/HAT ISOLATE)
# [16] = source organism: Human T-cell leukemia virus type I
# [17] = source organism: Human papillomavirus type 6b
sequence,measurement,setting,value
FPVRPQVPC,Kd,HLA-B*51:01 [1]; [11],1.3 µM
same,Kd,HLA-B*53:01 [2]; [11],1.3 µM
same,Kd,HLA-B*35:01 [3]; [11],1.3 µM
same,IC50,HLA-B*07:02 [4]; [11],0.38 µM
same,IC50,HLA-B*54:01 [5]; [11],0.0658 µM
WPLLPHVIF,Kd,HLA-B*53:01 [2]; [12],1.01 µM
same,IC50,HLA-B*51:01 [6]; [12],0.262 µM
same,IC50,HLA-B*07:02 [4]; [12],0.367 µM
same,IC50,HLA-B*54:01 [5]; [12],0.063 µM
same,IC50,HLA-B*35:01 [7]; [12],0.18 µM
QPFILYAHI,Kd,HLA-B*53:01 [2]; [13],5.47 µM
same,Kd,HLA-B*07:02 [8]; [13],≥ 25 µM
same,Kd,HLA-B*54:01 [9]; [13],2.94 µM
same,Kd,HLA-B*35:01 [3]; [13],≥ 25 µM
same,IC50,HLA-B*51:01 [6]; [13],0.026 µM
LPSIPVHPI,Kd,HLA-B*35:01 [3]; source organism: Homo sapiens,2.94 µM
same,IC50,HLA-B*51:01 [6]; source organism: Homo sapiens,0.032 µM
same,IC50,HLA-B*53:01 [10]; source organism: Homo sapiens,0.465 µM
same,IC50,HLA-B*07:02 [4]; source organism: Homo sapiens,0.068 µM
same,IC50,HLA-B*54:01 [5]; source organism: Homo sapiens,0.038 µM
FPRFKFVWV,Kd,HLA-B*53:01 [2]; [14],3.51 µM
same,Kd,HLA-B*35:01 [3]; [14],≥ 25 µM
same,IC50,HLA-B*51:01 [6]; [14],0.136 µM
same,IC50,HLA-B*07:02 [4]; [14],0.051 µM
same,IC50,HLA-B*54:01 [5]; [14],0.017 µM
FPVRPQVPQ,Kd,HLA-B*51:01 [1]; [11],1.3 µM
same,Kd,HLA-B*53:01 [2]; [11],1.3 µM
same,IC50,HLA-B*07:02 [4]; [11],0.38 µM
same,IC50,HLA-B*54:01 [5]; [11],0.079 µM
same,IC50,HLA-B*35:01 [7]; [11],0.394 µM
TPAEVSIVV,Kd,HLA-B*53:01 [2]; source organism: Homo sapiens,15.5 µM
same,Kd,HLA-B*07:02 [8]; source organism: Homo sapiens,1.53 µM
same,Kd,HLA-B*35:01 [3]; source organism: Homo sapiens,2.12 µM
same,IC50,HLA-B*51:01 [6]; source organism: Homo sapiens,0.039 µM
same,IC50,HLA-B*54:01 [5]; source organism: Homo sapiens,0.333 µM
SPATLLLVL,Kd,HLA-B*54:01 [9]; source organism: Homo sapiens,12.5 µM
same,IC50,HLA-B*51:01 [6]; source organism: Homo sapiens,0.162 µM
same,IC50,HLA-B*53:01 [10]; source organism: Homo sapiens,0.023 µM
same,IC50,HLA-B*07:02 [4]; source organism: Homo sapiens,0.01 µM
same,IC50,HLA-B*35:01 [7]; source organism: Homo sapiens,0.176 µM
SPSCPLERF,Kd,HLA-B*51:01 [1]; source organism: Homo sapiens,1.9 µM
same,Kd,HLA-B*53:01 [2]; source organism: Homo sapiens,3.44 µM
same,Kd,HLA-B*54:01 [9]; source organism: Homo sapiens,≥ 25 µM
same,IC50,HLA-B*07:02 [4]; source organism: Homo sapiens,0.833 µM
same,IC50,HLA-B*35:01 [7]; source organism: Homo sapiens,0.379 µM
LPSPACQLV,Kd,HLA-B*53:01 [2]; source organism: Homo sapiens,7.15 µM
same,Kd,HLA-B*07:02 [8]; source organism: Homo sapiens,7.86 µM
same,Kd,HLA-B*35:01 [3]; source organism: Homo sapiens,≥ 25 µM
same,IC50,HLA-B*51:01 [6]; source organism: Homo sapiens,0.0082 µM
same,IC50,HLA-B*54:01 [5]; source organism: Homo sapiens,0.217 µM
FPISPIETV,Kd,HLA-B*07:02 [8]; [15],3.48 µM
same,Kd,HLA-B*35:01 [3]; [15],1.05 µM
same,IC50,HLA-B*51:01 [6]; [15],0.147 µM
same,IC50,HLA-B*53:01 [10]; [15],0.251 µM
same,IC50,HLA-B*54:01 [5]; [15],0.0098 µM
LPTTLFQPY,Kd,HLA-B*53:01 [2]; [16],11.6 µM
same,Kd,HLA-B*35:01 [3]; [16],1.56 µM
same,IC50,HLA-B*51:01 [6]; [16],0.042 µM
same,IC50,HLA-B*07:02 [4]; [16],0.423 µM
same,IC50,HLA-B*54:01 [5]; [16],0.00083 µM
CPLERFAEL,Kd,HLA-B*54:01 [9]; source organism: Homo sapiens,1 µM
same,IC50,HLA-B*51:01 [6]; source organism: Homo sapiens,0.0062 µM
same,IC50,HLA-B*53:01 [10]; source organism: Homo sapiens,0.198 µM
same,IC50,HLA-B*07:02 [4]; source organism: Homo sapiens,0.068 µM
same,IC50,HLA-B*35:01 [7]; source organism: Homo sapiens,0.103 µM
MPNQAQMRI,Kd,HLA-B*35:01 [3]; source organism: Homo sapiens,1.04 µM
same,IC50,HLA-B*51:01 [6]; source organism: Homo sapiens,0.014 µM
same,IC50,HLA-B*53:01 [10]; source organism: Homo sapiens,0.02 µM
same,IC50,HLA-B*07:02 [4]; source organism: Homo sapiens,0.6 µM
same,IC50,HLA-B*54:01 [5]; source organism: Homo sapiens,0.424 µM
IPLYRNGDF,Kd,HLA-B*51:01 [1]; source organism: Homo sapiens,5.5 µM
same,Kd,HLA-B*53:01 [2]; source organism: Homo sapiens,≥ 25 µM
same,Kd,HLA-B*54:01 [9]; source organism: Homo sapiens,≥ 25 µM
same,Kd,HLA-B*35:01 [3]; source organism: Homo sapiens,≥ 25 µM
same,IC50,HLA-B*07:02 [4]; source organism: Homo sapiens,0.06 µM
IPFLTKFKL,Kd,HLA-B*07:02 [8]; [17],2.39 µM
same,Kd,HLA-B*35:01 [3]; [17],9 µM
same,IC50,HLA-B*51:01 [6]; [17],0.031 µM
same,IC50,HLA-B*53:01 [10]; [17],0.581 µM
same,IC50,HLA-B*54:01 [5]; [17],0.833 µM
VPLAHSSSA,Kd,HLA-B*53:01 [2]; source organism: Homo sapiens,≥ 25 µM
same,Kd,HLA-B*35:01 [3]; source organism: Homo sapiens,≥ 25 µM
same,IC50,HLA-B*51:01 [6]; source organism: Homo sapiens,0.367 µM
same,IC50,HLA-B*07:02 [4]; source organism: Homo sapiens,0.172 µM
same,IC50,HLA-B*54:01 [5]; source organism: Homo sapiens,0.023 µM
